A short description of this data set: soluble on expression in E. coli; label from the status in PepcDB or PDB records.
Turning to “MSLAEKPIKLGVLEDQSGDFAVATIGKVHAIQLAADEINKAGGIMGRPLELVVYDTQSDNTRYQEFMRRVLQRDKADAVFAGFSSASREAYRPIVDQLNGLAFYNNQYEGGVCDGHMIVTGAVPEQQFSTLIPWMMEKYGKKVYTLAADYNFGQISAEWVRNIVKQHGGEMAGVEFIPLGVSQFSQSIQNIQKAKPDFVVTLLVGTAQASYYEQAASANVNLPMASSVNVGQGYEHKRFKPPSLKDMYVTTNYIEEIDSPQSKAFLAKFKAKFPNEPYVNQEAENSYLAVYLYKQMVERAKSTNRDEIRKVIAQGDVCMDAPEGKVCIDPKSQHMSHTIYLAHVNADHSIDFPKVWPDIKPYWLGEAGCDLTKKDPMAQYTPSNEGHHHHHH”, the “soluble on expression in E. coli” value is listed as “soluble”.
Regarding “GAKPRNLNVSFQGCGMDSLSVRAMDTDTLTQVKEKILEAFCKNVPYSQWPRAEDVDLEWFASSTQSYILRDLDDTSVVEDGRKKLNTLAHYKIPEGASLAMSLIDKKDNTLGRVKDLDTEKYFHLVL”, the “soluble on expression in E. coli” value is “soluble”.
In the case of “MGSDKIHHHHHHMSFLQEINLKLDVFEGPLDLLLHLIQKLEIDIYDIPITAVTEQYMSYIHAMQTLELEVAGEYLVMAATLMAIKSQMLLPKQELEIIDDEDFFEEEDPREALVAQLLEYRKFKYAATVLHEKEEERKLYYTKEPMDMDDYKEEDTTLPPNQINTIDLFLAFHAMLEKKKNRQPVETTVASDDVSIEEKISAISERMRQVQKGKAVSFDSFFDSYSKQEIVTTFMALLELMKTGAIYAEQENNYSEILLFNTETQQEDTTEVEETQ”, the “soluble on expression in E. coli” value is reported as “not soluble”.
“MGSDKIHHHHHHMNKRNLLIAIPALCSGYLHGQTQPASPNVIYILMDDLGYGDIGCFGQDKIETPHIDRLCSEGIKLTQHYSGSPVSAPARCVLMTGMHSGHAQIRFNNELAERGAVNNYDSVYVHKELEGQFPLQANTMTIGRMMQQAGYTTGCFGKWGLGYPGSEGTPNKQGFDRFYGYNCQRQSHTYYPPFLYNDEERVYLSNKVTDPHRSPLDKGADPNDPASYAKYTQKEYANDLIFDELMGFVDANKRKPFFLMWTTPLPHVSLQAPERWVQHYVKKFGDEKPYTGQAGYLPCRYPHATYAAMISYFDEQIGQLIEKLKAEHLYENTLIVFTSDNGPTFNGGSDSPWFNSGGLFNSAYGWGKCFLHEGGIRVPAIITWPGKIKPGTQSDHICAFQDVMPTLAELAGITCPPTDGISFLPTLLGKKGKQKEHTYLYWEYPDPRIGNKAIRMGKWKGIITDIRKGNTQMQLYNLETDIREEHDVAAQHPDIVKRFERLMKEARNGPDF”: the “soluble on expression in E. coli” value was “not soluble”.
The result for “MTETTENVVITIPDKTSFTFHEAATSPSEGEEFVVGHFRELTVKISGSSTSREIKFYAVDENGEKTALSGTNKTDFQLGSSTLNTNEYWDFDIAGLFKVMFEVVSVTGDVTVKGIVVSLEHHHHHH” reads “soluble”; that for “MSLIVVTGGAGFIGSHVVDKLSESNEIVVIDNLSSGNEEFVNEAARLVKADLAADDIKDYLKGAEEVWHIAANPDVRIGAENPDEIYRNNVLATYRLLEAMRKAGVSRIVFTSTSTVYGEAKVIPTPEDYPTHPISLYGASKLACEALIESYCHTFDMQAWIYRFANVIGRRSTHGVIYDFIMKLKRNPEELEILGNGEQNKSYIYISDCVDAMLFGLRGDERVNIFNIGSEDQIKVKRIAEIVCEELGLSPRFRFTGGDRGWKGDVPVMLLSIEKLKRLGWKPRYNSEEAVRMAVRDLVEDLDEEGHHHHHH”, “soluble”; that for “MSLNGSRRIPQPIRWAMVGGGSQSQIGYIHRCAALRDNTFVLVAGAFDIDPIRGSAFGEQLGVDSERCYADYLSMFEQEARRADGIQAVSIATPNGTHYSITKAALEAGLHVVCEKPLCFTVEQAENLRELSHKHNRIVGVTYGYAGHQLIEQAREMIAAGELGDVRMVHMQFAHGFHSAPVEAQSQATQWRVDPRQAGPSYVLGDVGTHPLYLSEVMLPDLKIKRLMCSRQSFVASRAPLEDNAYTLMEYEGGAMGMVWSSAVNAGSMHGQKIRVIGSRASLEWWDERPNQLSFEVQGQPAQILERGMGYLHPNALIDDRIGGGHPEGLFEAWANLYYRFALAMDATDRSDTQALSAVRYPGIDAGVEGVRWVERCVLSADNDSIWVAYEGHHHHHH”, “soluble”.
The result for “MGSDKIHHHHHHMVRKKKEVAQVPSTSKEIKDTLWKSADKLRGSMDASQYKDVALGLVFLKYVSDSFEERQKEIRAELEGKGFDEEYILEDLADVDAYTSENVFWVASNARWDFLKKYSKGMDLEGKHKSIGKLIDEAMQQLMADNESLLGTLPQIYGKDNIDQRRLGELVDLFSSTYFASTKDKKARDLLGEVYEYFLDKFAKAEGKRGGEFYTPQPVVRTLVEILEPTEGRVYDPCCGSGGMFVQAEKFLEVTKRDRSNIAVYGQELNERTWRMAKMNLAIHAISSSGLGERWGDTFARDIHAGTKMDYIMANPPFNIKDWIRNEEDARWKYGVPPAKNANFAWIQHIISKLKDHGEAGVVMANGTMTSQSSGEGEIRKNMVEDDVVSCVIALPAQLFRGTGIPVCVWFFAKDKSAGVGGSVDRRGEVLLIDARQLGHMIDRTERAFSDEDITKIANAFRTWRGRKSAEGEYEDEAGFCKSATIEEIREAGYALTPGRYVGMPEAEEDDEPIDEKIARLTAELTAALDESARLDAVVREQLGRLK” reads “not soluble”; that for “MQYTLKQISEHLNAKVINEPSGEVIITGLTYAEQAKENDLTLIDKQEHIKLWQNSKATAAIVSKKISKELAQVNDKPLIVVNNADLAMAKILELFSVPYPEQNGIHEKAIIDPTAKIGKNVSIGPSAYIGKNVEIGDNTIIYANVCIYNDAKVGTNCIIWPSVIIRDRTIIGHFCRLCSNCSIGSDGFGYRPSEDGRTIVRIPHIGNVVIGSFVDIGSNTCINNAKYGSTIIGDYTKIDNLVQIGHNVIIGKGCMICGQAGISGSVTIGDGVIIAGNAGIKDHTNIGSDARIGGKAGVMWDVPAGESHMGYPAYKDSELAKQWIAIRKLPETMKKLKAIAKSLNIDL”, “not soluble”.
The result for “KFLHEISLVLQTSVDLDEVLSVVMTAITAGKGFGMNRAFLLLTDKERKHLRGYLGVGPRNYGEAWFIWDEISRDDFTLKEMAKNFYQTKFTSEKQKFHDILENLTIPLSEHDHILVRALREKKPLLVENAFHNPDCDYSLTQTLGVDTFLITPLVSRNRRIGVIISDNCVTHKPITPQDVQSLETFAFPVAFAIERASLYERLQEE” reads “not soluble”; that for “MSLSITRKDFDHINLEYSGLEKVNKAVAAGNYDDAAKALLAYYREKSKAREPDFSNAEKPADIRQPIDKVTREMADKALVHQFQPHKGYGYFDYGKDINWQMWPVKDNEVRWQLHRVKWWQAMALVYHATGDEKYAREWVYQYSDWARKNPLGLSQDNDKFVWRPLEVSDRVQSLPPTFSLFVNSPAFTPAFLMEFLNSYHQQADYLSTHYAEQGNHRLFEAQRNLFAGVSFPEFKDSPRWRQTGISVLNTEIKKQVYADGMQFELSPIYHVAAIDIFLKAYGSAKRVNLEKEFPQSYVQTVENMIMALISISLPDYNTPMFGDSWITDKNFRMAQFASWARVFPANQAIKYFATDGKQGKAPNFLSKALSNAGFYTFRSGWDKNATVMVLKASPPGEFHAQPDNGTFELFIKGRNFTPDAGVFVYSGDEAIMKLRNWYRQTRIHSTLTLDNQNMVITKARQNKWETGNNLDVLTYTNPSYPNLDHQRSVLFINKKYFLVIDRAIGEATGNLGVHWQLKEDSNPVFDKTKNRVYTTYRDGNNLMIQSLNADRTSLNEEEGKVSYVYNKELKRPAFVFEKPKKNAGTQNFVSIVYPYDGQKAPEISIRENKGNDFEKGKLNLTLTINGKQQLVLVPEGHHHHHH”, “soluble”.
In the case of “MKVETCVYSGYKIHPGHGKRLVRTDGKVQIFLSGKALKGAKLRRNPRDIRWTVLYRIKNKKGTHGQEQVTRKKTKKSVQVVNRAVAGLSLDAILAKRNQTEDFRRQQREQAAKIAKDANKAVRAAKAAANKEKKASQPKTQQKTAKNVKTAAPRVGGKR”, the “soluble on expression in E. coli” value is listed as “not soluble”.
The result for “MGSDKIHHHHHHMKVLLYLEAENYLRKSGIGRAIKHQAKALSLVGQHFTTNPRETYDLVHLNTYGLKSWLLMIKAQKAGKKVIMHGHSTEEDFRNSFIFSNLLSPWFKKYLCHFYNKADAIITPTLYSKSLIESYGVKSPIFAVSNGIDLEQYGADPKKEAAFRRYFDIKEGEKVVMGAGLFFLRKGIDDFVKVAQAMPDVRFIWFGETNKWVIPAQVRQMVNGNHPKNLIFPGYIKGDVYEGAMTGADAFFFPSREETEGIVVLEALASRQHLVLRDIPVYYGWVDQSSAELATDIPGFIEALKKVFSGASNKVEAGYKVAQSRRLETVGHALVDVYKKVMEL” reads “not soluble”.
